Assay results taken from US20020042368A1.

Molecular target: α6β1. α6β4 (human) (UniProt P23229)
Experiment: flow cytometry on HMVEC-d; dis-Fc binding with 5-8 fold excess α6β1/α6β4 mAb (GoH3, 439-9B; competitor) vs control mAb

ADAM-22dis-Fc (Fc fusion), sequence (chain): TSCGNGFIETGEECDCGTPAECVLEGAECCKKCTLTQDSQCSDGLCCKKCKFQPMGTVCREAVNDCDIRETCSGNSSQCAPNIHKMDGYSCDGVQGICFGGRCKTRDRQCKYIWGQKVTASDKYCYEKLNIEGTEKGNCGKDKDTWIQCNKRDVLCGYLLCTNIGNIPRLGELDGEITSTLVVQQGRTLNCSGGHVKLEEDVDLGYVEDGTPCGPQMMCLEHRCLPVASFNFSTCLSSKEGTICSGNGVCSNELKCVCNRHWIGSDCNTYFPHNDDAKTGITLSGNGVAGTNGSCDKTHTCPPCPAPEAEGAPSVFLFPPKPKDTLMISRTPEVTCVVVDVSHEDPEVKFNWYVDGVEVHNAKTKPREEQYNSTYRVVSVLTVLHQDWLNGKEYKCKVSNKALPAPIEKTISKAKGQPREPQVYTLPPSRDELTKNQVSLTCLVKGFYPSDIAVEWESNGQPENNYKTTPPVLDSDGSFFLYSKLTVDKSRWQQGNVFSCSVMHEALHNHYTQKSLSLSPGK
ADAM-23dis-Fc (Fc fusion), sequence (chain): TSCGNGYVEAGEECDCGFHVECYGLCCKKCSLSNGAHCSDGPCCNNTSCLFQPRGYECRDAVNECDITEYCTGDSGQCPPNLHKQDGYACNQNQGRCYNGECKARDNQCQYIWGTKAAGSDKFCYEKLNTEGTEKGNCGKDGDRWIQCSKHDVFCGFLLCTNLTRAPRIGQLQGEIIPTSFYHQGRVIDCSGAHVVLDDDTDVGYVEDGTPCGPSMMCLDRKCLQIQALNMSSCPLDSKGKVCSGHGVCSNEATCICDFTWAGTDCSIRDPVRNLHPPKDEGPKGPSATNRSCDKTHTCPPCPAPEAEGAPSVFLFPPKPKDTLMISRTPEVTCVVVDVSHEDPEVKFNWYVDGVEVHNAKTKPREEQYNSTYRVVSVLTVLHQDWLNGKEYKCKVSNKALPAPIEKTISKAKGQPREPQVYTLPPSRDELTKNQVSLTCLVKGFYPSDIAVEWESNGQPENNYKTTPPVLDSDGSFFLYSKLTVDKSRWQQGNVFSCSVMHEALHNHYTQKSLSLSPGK

| percent inhibition of binding [%] | Substance |
| --- | --- |
| 32 | ADAM-22dis-Fc (Fc fusion) |
| 31 | ADAM-23dis-Fc (Fc fusion) |
